Data taken from patent US5968526A, “T cell epitopes of the major allergens from Dermatophagoides (house dust mite)” (Immulogic Pharamaceutical Corporation, priority 1995, dated 1999).

How the values were obtained:
pH-solubility profile = assay type: physicochemical; conditions: for solubility: at a pH in the range pH 6 to pH 8; for solubility (in words): aqueous buffer, superior solubility = >3 mg/ml at pH 6-8
Description: (§1) 50 mM sodium phosphate stock solutions:
(§2) Stock solution A: 0.66 g […] of monobasic sodium phosphate monohydrate U.S.P. and 50 mg EDTA disodium dihydrate, U.S.P. were dissolved in 100 mL of WFI. The solution was filtered through a 0.2 micron filter
(§3) Stock solution B: 0.71 g […] of dibasic sodium phosphate U.S.P. were disolved in 100 ml WFI. The solution was filtered through a 0.2 micron filter.
(§4) 2. Initial peptide dispersions
(§5) Dispersion A: 3.0 mg of each candidate peptide,DPI-21.2 (SEQ. ID. NO. 28), DFI-22.2 (SEQ. ID. NO. 93), DFI-23.31(SEQ. ID. NO. 165), DFI-26.6 (SEQ. ID. NO. 168), DPII-20.9 (SEQ. ID. NO. 169), DPII-22.14 (SEQ. ID. NO. 180) and DPII-25.15 (SEQ. ID. NO. 188), was weighed out separately and placed in separate 1.5 mL eppendoff vials with 600 μL of stock solution A. The composition was agitated for 1 seconds to mix well.
as §5, with “Dispersion B:” for “Dispersion A:”, “each peptide, DPI-21.2” for “each candidate peptide,DPI-21.2”, “solution B.” for “solution A.”, “The mixture” for “The composition”, “for 5” for “for 1”
(§6) Dispersions A and B were sonicated for 2 minutes for good homogeneity. A small volume was pipetted from each dispersion into a labeled eppendoff vial according to the following volume ratio:
(§7) The resultant solutions/suspensions were stored in the dark at about 22° C.±2 for 24 hours without agitation. The solutions were filtered and filtrates were analyzed for pH and peptide concentration.
(§8) The concentration of filtered peptide solutions was determined by HPLC analysis. In this experiment, the solubility of peptide at each pH is defined as the amount of peptide remaining in solution after filtration through a membrane filter having a 0.2 micrometer pore size. The extent of degradation of peptides was estimated by calculating the percent of total degradant peak area over the total peak area.
The pH values with respect to the solubility values was plotted and are shown in FIG. 37 for each respective peptide. As shown in the solubility curve for each peptide as represented in FIG. 37, peptides DPI-21.2 (SEQ. ID. NO. 28), DFI-22.2 (SEQ. ID. NO. 93), DFI-23.31 (SEQ. ID. NO. 165), DFI-26.6 (SEQ. ID. NO. 168), DPII-20.9 (SEQ. ID. NO. 169), DPII-22.14 (SEQ. ID. NO. 180) and DPII-25.15 (SEQ. ID. NO. 188) are each soluble at greater than 3 mg/ml at a pH in the pH range of pH 6 to pH 8.

human IgE = experiment: direct binding ELISA of IgE to mite allergen proteins and peptides; conditions: for IgE reactivity, candidate peptides: data not shown; for IgE binding (ELISA), modified peptides: plasma of 19 mite-allergic patients and pool of 18, Example XV
mast cells or basophils = experiment: histamine release; assay type: cell-based, human; conditions: data not shown
Description: To determine whether a peptide which binds IgE results in the release of mediators, a histamine release assay can be performed using standard reagents and protocols obtained for example, from Amac, Inc. (Westbrook, Me.). Briefly, a buffered solution of a peptide to be tested is combined with an equal volume of whole heparinized blood from an allergic subject. After mixing and incubation, the cells are pelleted and the supernatants are processed and analyzed using a radioimmunoassay to determine the amount of histamine released.

[1] = pH-stability profile / solution stability (HPLC); assay type: physicochemical; conditions: pH 6 to pH 8
Description: as §1, §2, §3, §4, §5
as §5, with “Dispersion B:” for “Dispersion A:”, “each peptide, DPI-21.2” for “each candidate peptide,DPI-21.2”, “solution B.” for “solution A.”, “The mixture” for “The composition”, “for 5” for “for 1”
as §6, §7, §8
The pH-stability profiles for each peptide DPI-21.2 (SEQ. ID. NO. 28), DFI-22.2 (SEQ. ID. NO. 93), DFI-23.31(SEQ. ID. NO. 165), DFI-26.6 (SEQ. ID. NO. 168), DPII-20.9 (SEQ. ID. NO. 169), DPII-22.14 (SEQ. ID. NO. 180) and DPII-25.15 (SEQ. ID. NO. 188) in equal concentration combination at 3, 2, and 1 mg/ml per peptide and prepared in duplicate as described above with one set stored at about 5° C. for 24 hours and one set stored at about 22° C.±2 for 24 hours, were calculated and tabulated as a function of the percentage of total of degradant peak area (FIG. 38).

Substance | solubility (pH-solubility profile) | IgE reactivity, candidate peptides (human IgE) | histamine release (mast cells or basophils) | stability (in words) [1] | IgE binding (ELISA), modified peptides (human IgE) | solubility (in words) (pH-solubility profile) | stability (in words) ([1]; listed as SEQ. ID. NO. 207)
DF I-22.2: VAATESAYLAYRNTSLDLSEQELVD, amino acid residues 40-64 of Der f I | greater than 3 mg/ml | negative | negative | acceptable solution stability |  |  | 
DP I-21.2: Der p I peptide; unique peptide (SINGNAPAEIDLRQMRTVTPIRMQ) | greater than 3 mg/ml | negative | negative | acceptable solution stability |  |  | 
DP I-23.31: modified Der p I peptide; unique peptide (DEEGVVQESYYRYVAREQSCRRPNAE) | greater than 3 mg/ml | negative | negative | acceptable solution stability | No plasma samples contained IgE |  | 
DP I-26.6: modified Der p I peptide; unique peptide (DEGIKDLDAFRHYDGRTIIQRDNGYE) | greater than 3 mg/ml | negative | negative | acceptable solution stability |  |  | 
DP II-20.9: modified Der p II peptide; unique peptide (DQVDVKDCANHEIKKVLVPGCHGSE) | greater than 3 mg/ml | negative | negative | acceptable solution stability | No plasma samples contained IgE |  | 
DP II-22.14: DKELEAVFEANQNTKTAKAE; unique peptide | greater than 3 mg/ml | negative | negative | acceptable solution stability | No plasma samples contained IgE | increased by an order of magnitude | 
DP II-22: QLEAVFEANQNTKTAKIEIKASIDGLEV |  |  |  | stable |  | did not meet the "superior solubility" requirement of 3 mg/ml | nor did it meet the stability requirement
